{
  "source": "FireProtDB (doi:10.1016/s0022-2836(02)00915-4)",
  "parents": {"B1": {"name": "Protein GrpE, P09372 (parent)", "chain": "MSSKEQKTPEGQAPEEIIMDQHEEIEAVEPEASAEQVDPRDEKVANLEAQLAEAQTRERDGILRVKAEMENLRRRTELDIEKAHKFALEKFINELLPVIDSLDRALEVADKANPDMSAMVEGIELTLKSMLDVVRKFGVEVIAETNVPLDPNVHQAIAMVESDDVAPGNVLGIMQKGYTLNGRTIRAAMVTVAKAKA"}},
  "note": "“And” between values parts separate entries of the source, which are not always exact repeats. Identical values can stand only once.",
  "data": [
    {"variants_of": "B1", "settings": "Escherichia coli (strain K12); pH 6.8; Thermal; CD; potassium phosphate 10 mM; transition: 3; reversible: yes; structure 1DKG; whole UniProt chain shown", "units": {"Tm": "°C"}, "values": [
      {"variant": "MSSKEQKTPEGQAPEEIIMDQHEEIEAVEPEASAEQVDPRDEKVANLEAQLAEAQTRERDGILRVKAEMENLRRRTELDIEKAHKFALEKFINELLPVIDSLDRALEVADKANPDMSAMVEDIELTLKSMLDVVRKFGVEVIAETNVPLDPNVHQAIAMVESDDVAPGNVLGIMQKGYTLNGRTIRAAMVTVAKAKA", "note": "[G122D]", "change of melting temperature, mutant - wild type (higher = more stable)": "-3 °C and 0 °C and -2 °C"},
      {"variant": "MSSKEQKTPEGQAPEEIIMDQHEEIEAVEPEASAEQVDPRDEKVANLEAQLAGAQTRERDGILRVKAEMENLRRRTELDIEKAHKFALEKFINELLPVIDSLDRALEVADKANPDMSAMVEGIELTLKSMLDVVRKFGVEVIAETNVPLDPNVHQAIAMVESDDVAPGNVLGIMQKGYTLNGRTIRAAMVTVAKAKA", "note": "[E53G]", "Tm": 81, "change of melting temperature, mutant - wild type (higher = more stable)": "-2 °C"}
    ]}
  ]
}
